According to patent US6001353A, “20α-alpha-hydroxy steroid dehydrogenase related material and methods” (priority 1997, dated 1999):

Assays:
20α-HSD mRNA = assay: Northern blot of corpus luteum 20α-HSD mRNA in hypophysectomized pregnant rats; type: in vivo, rat; conditions: rats hypophysectomized day 3, 125 μg twice daily, tissue on day 7
Experimental: For these studies, Holtzman pregnant rats were hypophysectomized on day 3 and treated with either prolactin (NIADDK oPRL-18, 125 μg, twice daily) or with vehicle (control). On day 7, corpus luteum and various other tissues (brain, decidua, ovary, and uterus) were obtained for analysis.
Total RNA from the harvested tissues was isolated by the method of Chomzynski and Sacchi [Anal. Biochem. 162:156-159 (1984)] and equal aliquots (20 μg) were electrophoresized and transferred to nylon membranes, or slot blotted onto Genescreen (DuPont, Wilmington, Del.) membrane. RNA was prehybridized for 16 hours at 42° C. in 40% formamide, 6×SSC, 5×Denhardt's, 20 mM NaH2 PO4, 0.2% SDS and 100 μg/ml salmon sperm DNA. Hybridization was completed in the same solution with the addition of ^32 P-labeled rat 20α-HSD cDNA (10^6 cpm/ml) at 42° C. for 12-16 hours. Blots were washed twice in 05.×SSC and 0.1% SDS (15 minutes, room temperature), twice in 0.2×SSC and 0.1% SDS (15 minutes, 42° C.), twice in 0.2×SSC and 0.1% SDS (15 minutes, 56° C.) and twice in 01.×SSC and 0.1% SDS (15 minutes, 56° C.).

[1] = Cyclooxygenase assay: conversion of [3H]arachidonic acid; type: biochemical; conditions: purified preparations from either expression system
Experimental: (§1) To test for prostaglandin endoperoxide synthase type catalytic activity of recombinant 20α-HSD, both cyclooxygenase activity (which converts arachidonic acid into the hydroperoxide, PGG2) and peroxidase activity (which reduces PGG2 and other hydroperoxides to the corresponding alcohol, such as PGH2) were measured. The cyclooxygenase assay was performed by following the conversion of [^3 H] arachidonic acid [Dupont-New England Nuclear Research Products, Boston, Mass.] to [^3 H]PHG2 and [^3 H]PHE2 [Mitchell et al. Proc. Natl. Acad. Sci. USA 90:11693-11697, 1994]. Peroxidase activity was measured by monitoring the oxidation of N,N,N',N', tetramethyl-p-phenylenediamine at 611 nm [Iwata et al., Arch. Biochem. Biophys. 282:70-77 (1990)].

[2] = Peroxidase activity: oxidation of tetramethyl-p-phenylenediamine at 611 nm; type: biochemical; conditions: purified preparations from either expression system
Experimental: as §1

protein kinase A (PKA) = assay: In vitro kinase assay, phosphorylation of 20α-HSD by PKA; type: biochemical; conditions: bacterially expressed enzyme, [γ-32P]ATP
Experimental: (§2) Purified recombinant 20α-HSD (of the bacterial expression system) was incubated with various protein kinases after an initial incubation with alkaline phosphatase (to ensure that the protein was in a non-phosphorylated state) and subsequently assayed for 20α-HSD activity.
(§3) More particularly, purified bacterially expressed recombinant 20α-HSDwas first incubated in […] Tris-HCl (pH 8), 1 mM MgCl2, 1 mg/ml BSA, 0.5 mM dithiothreitol, and 60 U alkaline phosphatase coupled to agarose beads for 30 min. at 30° C. After centrifugation, the supernatant containing 20α-HSD was used as a substrate in various in vitro kinase assays. The protein kinase A (PKA), protein kinase C (PKC) and insulin receptor-associated tyrosine kinase activities were measured as described previously [Raz et al., Biochem. J. 269:603-607 (1990), Azhar et al., Am J. Physiol, 260:E1-E7 (1991)]. src kinase (p60^src) activity was assayed as described by Simonson and Herman [Simonson et al., J. Biol Chem., 268:9347-9357 (1993)]. […]

purified rat liver PKC = assay: In vitro kinase assay, phosphorylation of 20α-HSD by PKC; type: biochemical; conditions: bacterially expressed enzyme, [γ-32P]ATP
Experimental: as §2, §3

src kinase (p60^src) = assay: In vitro kinase assay, phosphorylation of 20α-HSD by src kinase; type: biochemical; conditions: bacterially expressed enzyme
Experimental: as §2
(§4) More particularly, purified bacterially expressed recombinant 20α-HSDwas first incubated in […] Tris-HCl (pH 8), 1 mM MgCl2, 1 mg/ml BSA, 0.5 mM dithiothreitol, and 60 U alkaline phosphatase coupled to agarose beads for 30 min. at 30° C. After centrifugation, the supernatant containing 20α-HSD was used as a substrate in various in vitro kinase assays. The protein kinase A (PKA), protein kinase C (PKC) and insulin receptor-associated tyrosine kinase activities were measured as described previously [Raz et al., Biochem. J. 269:603-607 (1990), Azhar et al., Am J. Physiol, 260:E1-E7 (1991)]. src kinase (p60^src) activity was assayed as described by Simonson and Herman [Simonson et al., J. Biol Chem., 268:9347-9357 (1993)].

[3] = system: insulin receptor-associated tyrosine kinase; assay: In vitro kinase assay, phosphorylation of 20α-HSD by insulin receptor tyrosine kinase; type: biochemical; conditions: bacterially expressed enzyme
Experimental: as §2, §4

[4] = system: Pregnant Sprague-Dawley rats; assay: Anti-reproductive effect in pregnant rats: serum progesterone (RIA) and termination of pregnancy; type: in vivo, rat
Experimental: Pregnant Sprague-Dawley rats were treated with purified 20α-HSD produced by a bacterial expression system (see Example 1) to assess the effect of the enzyme on (1) progesterone levels and (2) the possible termination of pregnancy. More particularly, animals were divided into two treatment groups (7 rats per group: 6 receiving treatment, 1 control) and were injected (intraperitoneally) with the purified recombinant 20α-HSD and an eqimolar dose of NADPH. Injections were administered on day 8 of pregnancy and continued for 72 hours.
Group 1 received intraperitoneal injections of the purified 20α-HSD (167 μg with an equimolar dose of NADPH) every 4 hours, continuing for 72 hours. Group 2 received intraperitoneal injections of the purified 20α-HSD (250 μg with an equimolar dose of NADPH) every 6 hours, continuing for 72 hours. The control treatment groups received an equal amount of GST alone with an eqimolar dose of NADPH. Blood samples were collected every 12 hours via jugular veins. Serum progesterone levels were determined by standard radioimmunoassay techniques [Gibori et al., Endocrinology 100:1483-1495 (1977)].

recombinant 20α-HSD = molecular target: T1, recombinant 20α-HSD (Rattus norvegicus, UniProt P51652); assay: Catalytic activity of phosphorylated versus non-phosphorylated 20α-HSD, radiochemical; type: biochemical; parameters: a DNA fragment of 1.2 Kb containing the entire coding region of 20α-HSD; GST (removed with thrombin) (N, cleaved yes); made in house; host or cells: E. coli DH5α (pGEX-4T-2)
T1 sequence (P51652 1-323): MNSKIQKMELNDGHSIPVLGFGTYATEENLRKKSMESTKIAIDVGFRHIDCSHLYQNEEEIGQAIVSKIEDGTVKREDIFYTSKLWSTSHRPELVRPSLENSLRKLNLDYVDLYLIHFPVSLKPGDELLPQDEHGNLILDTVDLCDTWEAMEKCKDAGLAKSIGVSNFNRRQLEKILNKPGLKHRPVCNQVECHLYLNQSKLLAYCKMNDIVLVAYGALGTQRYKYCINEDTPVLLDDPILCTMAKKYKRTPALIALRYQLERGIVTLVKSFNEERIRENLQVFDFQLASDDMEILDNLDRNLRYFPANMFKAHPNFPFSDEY
Experimental: Enzyme activity of the recombinant 20α-HSD was determined by the rate of conversion of [1-2^3 H]-20α-hydroxy-pregn-4-ene-3-one (20α-hydroxprogesterone) to [1,2^3 H]progesterone in the presence of NADPH as described by Jones & Hsueh [J. Biol. Chem. 256:1248-1254 (1981)]. Enzyme activity was measured in this manner due to the fact that in an in vitro setting the reaction may be reversed, i.e. conversion of 20α-hydroxyprogesterone to progesterone. The assay mixtures (0.05 ml) contained 100 μM [1,2^3 H]hydroxyprogesterone [Dupont-New England Nuclear Research Products, Boston Mass.] […] Following incubation at 37° C. for 30 minutes, the [^3 H]progesterone content of each sample was determined after isolation by thin layer chromatography isolation. One unit of enzyme activity is defined as that amount of enzyme catalyzing the formation of 1 nmol of [^3 H]progesterone/minute from [1,2^3 H]hydroxyprogesterone. Specific activity is expressed as units/min/mg protein. The protein concentration was determined by the Bradford method using bovine serum albumin [Sigma Chemical Co, St. Louis, Mo.] as the standard [Bradford, Anal. Biochem. 72:248-254 (1976)]. […] Acta. 799:51-58 (1984); Noda et al., Biochim Biophys. Acta. 1079:112-118 (1991)]. […]

[5] = Group 1 protocol, laparoscopy at 72 hour end point

B1: prolactin (protein, UniProt P01240 31-229, looked up)
Prolactin: TPVCPNGPGNCQVSLRDLFDRAVMVSHYIHNLSSEMFNEFDKRYAQGKGFITMALNSCHTSSLPTPEDKEQAQQTHHEVLMSLILGLLRSWNDPLYHLVTEVRGMKGVPDAILSRAIEIEEENKRLLEGMEMIFGQVIPGAKETEPYPVWSGLPSLQTKDEDARHSAFYNLLHCLRRDSSKIDTYLKLLNCRIIYNNNC
notes: prolactin (NIADDK oPRL-18)
In the case of B1, the “expression of 20α-HSD mRNA in corpora lutea” value (20α-HSD mRNA) is reported as “markedly reduced”.

B2: 20α-hydroxysteroid dehydrogenase (protein)
chain: T1 sequence (P51652 1-323)
In the case of B2, the cyclooxygenase activity [1] is reported as “Neither peroxidase not cyclooxygenase activity was detected”, the peroxidase activity [2] is reported as “Neither peroxidase not cyclooxygenase activity was detected” and the “phosphorylation of 20α-HSD by PKA” value (protein kinase A (PKA)) is reported as “readily phosphorylated”. For the same molecule, the “phosphorylation of 20α-HSD by PKC” value (purified rat liver PKC) was “readily phosphorylated”, the “phosphorylation of 20α-HSD by src kinase” value (src kinase (p60^src)) was “failed to phosphorylate” and the “phosphorylation of 20α-HSD by insulin-receptor-associated tyrosine kinase” value [3] was “failed to phosphorylate”. The “time to significant decline of serum progesterone levels” value ([4]; Group 1: 167 μg i.p. every 4 hours) was at most 48 h, the animals aborted totally [4, 5] was 5 animals and the animals partially aborting [4, 5] was 2 animals. For the same molecule, the “time to significant decline of serum progesterone levels” value ([4]; Group 2: 250 μg i.p. every 6 hours) was 60 h, the “time to termination of pregnancy” value ([4]; pregnant rats, i.p. with equimolar NADPH from day 8 of pregnancy) was at most 72 h and the circulating progesterone ([4]; pregnant rats, i.p. with equimolar NADPH from day 8 of pregnancy, bacterially expressed enzyme) was “marked decrease”. The “20α-HSD activity after phosphorylation with PKA” value (recombinant 20α-HSD) was “not significantly affected” and the “20α-HSD activity after phosphorylation with PKC” value (recombinant 20α-HSD; ATP-Mg2+, diacylglycerol, phosphatidylserine) was “unaffected”.
